The values below are quoted from earlier work in article PMC6258485.

This data set deals with CD55 (Homo sapiens) (UniProt P08174).
UniProt P08174, sequence (P08174 35-353): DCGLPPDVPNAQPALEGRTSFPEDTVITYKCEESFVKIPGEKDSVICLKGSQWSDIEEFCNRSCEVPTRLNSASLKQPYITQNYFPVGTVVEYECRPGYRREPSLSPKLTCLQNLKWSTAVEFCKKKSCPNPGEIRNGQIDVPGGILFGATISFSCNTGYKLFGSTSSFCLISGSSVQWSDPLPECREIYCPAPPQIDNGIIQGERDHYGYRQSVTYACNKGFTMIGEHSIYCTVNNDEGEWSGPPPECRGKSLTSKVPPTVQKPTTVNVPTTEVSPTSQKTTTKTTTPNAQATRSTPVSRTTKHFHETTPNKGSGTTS

In the case of CD97 (from UniProt P48960), the Kd was 86 µM.
